T1: Ala mutant of TA0096, SEQ ID NO: 32
T1 sequence (peptide): EENMDAQWMQDEMEIGY

T2: Ala mutant having 3-amino acid substitution, SEQ ID NO: 46
T2 sequence (peptide): EENMDDAAAQDEMEIGY


How the values were obtained:
[1] = target: T1, Ala mutant of TA0096, SEQ ID NO: 32; experiment: ELISA, coated peptide
[2] = target: T2, Ala mutant having 3-amino acid substitution, SEQ ID NO: 46; experiment: ELISA, coated peptide

OD 490/630 nm [1]	OD 490/630 nm [2]	Binder
0.628	–	A11 (antibody, V domains shown) VH: AVTLDESGGGLQTPGGALSLVCKASGFDFSSYGMGWMRQAPGKGLEYVAAIRNDGSWTGYGAAVKGHATISRDNGQSTVRLQLNNLRAEDTGTYYCAKTTGSRGGSIDAWGHGTEVIVS VL: ASTQPSSVSANLGGTVEITCSGGGRYYYGWYQQKSPGSAPVTVIYANDKRPSDIPSRFSGSKSGSTGTLTITGVQAEDEAVYFCGSAETSSYVFGAGTTLTVL
–	0.178	G8 (antibody, V domains shown) VH: AVTLDESGGGLQTPGGALSLVCKASGFTFSTYAMGWMRQAPGKGLEYVAAIRNDGSWTGYGAAVKGRATILRDNGQSTVRLQLSNLRAEDTGTYYCAKYTGSSGGSIGAWGHGTEVIVS VL: ASTQPSSVSANLGGTVEITCSGGNRNYYYGWYQQKSPGSAPVTLIYANDKRPSNIPSRFSGSKSGSTGTLTITGVQAEDEAVYFCGTADTGKYVFGAGTTLTVL
0.177	–	E9 (antibody, V domains shown) VH: AVTLDESGGGLQTPGGTLSLVCKGSGFTFSSYGMGWMRQAPGKGLEYVAAIRNDGSWTGYGSAVKGRATISRDNGQSTVRLQLNNLRAEDTATYYCAKTSGSSGGSVDAWGHGTEVIVS VL: ASTQPSSVSANLGGTVEITCSGGGRYYYGWYQQKSPGSAPVTVIYANDKRPSDIPSRFSGSKSGSTGTLTITGVQAEDEAVYFCGSAETSSYVFGAGTTLTVL

Reference: US20180044434A1
